Results published in patent publication US20260176336A1.

Molecular target: human LTBR endogenously expressed on cells (HepG2, A549, A375, HCC1187, RPMI-7951, primary human breast CAFs) (human) (UniProt P36941)
Assay: cell-based or functional assay

Sequence of human LTBR endogenously expressed on cells (HepG2, A549, A375, HCC1187, RPMI-7951, primary human breast CAFs) (human) (P36941 31-435): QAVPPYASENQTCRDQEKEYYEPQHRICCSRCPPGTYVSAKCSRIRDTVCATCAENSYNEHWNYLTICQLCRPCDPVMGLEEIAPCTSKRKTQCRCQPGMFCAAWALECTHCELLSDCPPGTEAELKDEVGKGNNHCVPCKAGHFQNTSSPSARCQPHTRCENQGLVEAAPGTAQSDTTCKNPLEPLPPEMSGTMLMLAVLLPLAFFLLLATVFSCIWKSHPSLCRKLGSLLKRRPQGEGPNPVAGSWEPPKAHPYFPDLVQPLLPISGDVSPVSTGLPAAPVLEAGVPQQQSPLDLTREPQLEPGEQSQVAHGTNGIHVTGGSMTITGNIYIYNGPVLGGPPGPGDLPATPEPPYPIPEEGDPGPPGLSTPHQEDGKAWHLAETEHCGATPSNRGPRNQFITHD

B1: CBE-11 (antibody, from another filing, human IgG1, V domains shown)
VH: EVQLVESGGGLVKPGGSLRLSCAASGFTFSDYYMYWFRQAPGKGLEWVATISDGGSYTYYPDSVKGRFTISRDNAKNSLYLQMSSLRAEDTAVYYCAREENGNFYYFDYWGQGTTVTVSS
VL: DIQMTQSPSSLSASVGDRVTITCKAGQDIKSYLSWYQQKPGKAPKLLIYYATRLADGVPSRFSGSGSGTDYTLTISSLQPEDFATYYCLQHGESPWTFGGGTKLEIKR
In the case of B1, the CCL19 upregulation, HCC1187:CAF Co-culture EC50 is reported as 0.26 nM, the CCL19 upregulation, HCC1187 Monoculture EC50 is reported as 0.23 nM and the HCC1187 monoculture assay CCL19 read-out EC50 is reported as 0.239 nM. It also gave an HCC-1187:RPMI7951 (cis-activation) co-culture assay CCL5 read-out EC50 of 0.13 nM, an HCC-1187:RPMI7951 (trans-activation) co-culture assay, CCL19 Read-out EC50 of 0.084 nM and a HepG2 Reporter assay, HepG2:FAP-CHO-K1 Co-culture EC50 of 0.046 nM. For the same binder, the HepG2 Reporter assay, HepG2 Monoculture EC50 was 0.033 nM, the ICAM1 upregulation in CAFs monoculture assay EC50 was 0.044 nM and the chemokine (CCL5) induction in RPMI-7951 EC50 was 0.38 nM.
